One data set concerns the target KaiC-AA (S431A, T432A) (UniProt Q79PF4). The experiment in a line: cryo-EM structure.
The data set “cryo-EM structure” concerns the molecule itself. Briefly: cryo-EM structure.

The term stoichiometry N denotes the number of molecules, sites or subunits per partner or assembly.

In turn, “KaiC-AA (S431A, T432A) (from UniProt Q79PF4 14-484) (enzyme)” came in with a stoichiometry N with KaiC-AA (S431A, T432A) of 6.

B1: KaiC-EE (S431E, T432E) (enzyme)
chain: EHQAIAKMRTMIEGFDDISHGGLPIGRSTLVSGTSGTGKTLFSIQFLYNGIIEFDEPGVFVTFEETPQDIIKNARSFGWDLAKLVDEGKLFILDASPDPEGQEVVGGFDLSALIERINYAIQKYRARRVSIDSVTSVFQQYDASSVVRRELFRLVARLKQIGATTVMTTERIEEYGPIARYGVEEFVSDNVVILRNVLEGERRRRTLEILKLRGTSHMKGEYPFTITDHGINIFPLGAMRLTQRSSNVRVSSGVVRLDEMCGGGFFKDSIILATGATGTGKTLLVSRFVENACANKERAILFAYEESRAQLLRNAYSWGMDFEEMERQNLLKIVCAYPESAGLEDHLQIIKSEINDFKPARIAIDSLSALARGVSNNAFRQFVIGVTGYAKQEEITGLFTNTSDQFMGAHSITDSHIEEITDTIILLQYVEIRGEMSRAINVFKMRGSWHDKAIREFMISDKGPDIKDSFRNFERIISGSPTRI
Turning to B1, the “stoichiometry N” value in “cryo-EM structure” worked out at 6.

Source of the values: paper doi:10.1101/2022.02.27.481910 (bioRxiv, 2022).
